Patent publication US20240425569A1 (VISTERRA, published 2024)
Changes are numbered by the printed parent chain. Names may count otherwise. “And” between values parts separate entries of the source, which are not always exact repeats. Equal values may be shown once. Read-outs that look alike come from different tables or passages of the source.

Tests used:
[1] = biological target: T1, EDIII-DV1 (E protein domain III of dengue virus serotype DV-1) (dengue virus serotype DV-1, UniProt P17763 573-680); assay: competition ELISA
T1 construct: also called DENV-1; EDIII of DV-1
T1 chain: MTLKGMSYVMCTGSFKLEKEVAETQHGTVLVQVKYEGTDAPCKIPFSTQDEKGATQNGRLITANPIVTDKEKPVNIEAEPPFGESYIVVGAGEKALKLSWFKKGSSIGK

[2] = biological target: T2, EDIII-DV3 (E protein domain III of dengue virus serotype DV-3) (dengue virus serotype DV-3, UniProt P27915 571-678); assay: competition ELISA
T2 construct: also called DENV-3; EDIII of DV-3

[3] = biological target: T3, New Caledonia/2009 (serotype IV EDIII); assay: Kd table, method not stated; Ag DENV-4 NC
T3 construct: also called ED3-DV4/NewCal09; DENV-4 NC
T3 E protein domain III (EDIII): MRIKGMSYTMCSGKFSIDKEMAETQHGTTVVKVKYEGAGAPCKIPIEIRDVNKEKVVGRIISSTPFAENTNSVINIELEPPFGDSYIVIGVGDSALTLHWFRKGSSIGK

[4] = biological target: T1, EDIII-DV1 (E protein domain III of …)
[5] = biological target: T4, EDIII-DV2 (E protein domain III of dengue virus serotype DV-2) (dengue virus serotype DV-2, UniProt P14337 573-677)
T4 construct: also called DENV-2; EDIII of DV-2

[6] = biological target: T2, EDIII-DV3 (E protein domain III of …)
[7] = biological target: T5, New Guinea/1944 (NGC)* (serotype II EDIII) (Dengue virus 2); assay: Kd table, method not stated; Ag DENV-2 NGC
T5 construct: isolated EDIII protein; also called EDIII of DENV-2 NGC

[8] = biological target: T6, Philippines/1956 (H87)* (serotype III EDIII) (Dengue virus 3)
T6 construct: isolated EDIII protein

[9] = biological target: T7, Nicaragua/2010 (serotype III EDIII)
T7 construct: also called ED3-DV3/Nicaragua10; DENV-3 Nic
T7 E protein domain III (EDIII): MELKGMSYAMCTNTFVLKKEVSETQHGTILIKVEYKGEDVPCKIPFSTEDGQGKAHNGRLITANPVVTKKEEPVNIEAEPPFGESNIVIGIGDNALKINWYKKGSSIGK

[10] = biological target: T8, Mexico/1977 (BC287/97)* (serotype IV EDIII) (Dengue virus 4); assay: Kd table, method not stated; Ag DENV-4 BC2
T8 construct: isolated EDIII protein; also called EDIII of DENV-4 Mexico/1997 (BC287/97); DENV-4 BC2

[11] = biological target: T9, Peru/1995 (serotype II EDIII); assay: Kd table, method not stated; Ag DENV-2 Peru
T9 construct: also called ED3-DV2/Peru95; DENV-2 Peru

[12] = biological target: T10, Singapore/2008 (serotype II EDIII); assay: Kd table, method not stated; Ag DENV-2 Sing
T10 construct: also called ED3-DV2/Sing08; DENV-2 Sing

[13] = biological target: T11, Singapore/2009 (serotype III EDIII)
T11 construct: also called ED3-DV3/Sing09; DENV-3 Sing
T11 E protein domain III (EDIII): T7 E protein domain III (EDIII) with T12Q, T14A, V40A, N94K

[14] = biological target: ED3-DV4/H241/Phil56 (EDIII of DENV-4 strain H241) (dengue virus serotype DENV-4, strain …, UniProt Q58HT7 572-679); assay: Kd table, method not stated; Ag DENV-4 Phil
[15] = biological target: T12, Singapore/2010 (serotype IV EDIII); assay: Kd table, method not stated; Ag DENV-4 Sing
T12 construct: also called ED3-DV4/Sing10; DENV-4 Sing
T12 E protein domain III (EDIII): T3 E protein domain III (EDIII) with I44V, I74T

[16] = biological target: T13, EDIII-DV4 (E protein domain III of dengue virus serotype DV-4) (dengue virus serotype DV-4, UniProt P09866 572-679)
T13 construct: also called DENV-4

[17] = biological target: T13, EDIII-DV4 (E protein domain III of …); remark: listed apart in the source
[18] = biological target: T13, EDIII-DV4 (E protein domain III of …); remark: listed apart in the source
[19] = biological target: T2, EDIII-DV3 (E protein domain III of …); remark: listed apart in the source
[20] = biological target: T13, EDIII-DV4 (E protein domain III of …); remark: listed apart in the source
[21] = biological target: T4, EDIII-DV2 (E protein domain III of …); assay: competition ELISA

B1: antibody A11 (antibody, V domains shown)
VH: VKLLEQSGAELVKPGASVRLSCTASGFNIKDTYMSWVKQRPEQGLEWIGRIDPENGDTKYDPKFQGKATITADTSSNTAYLHLSSLTSGDTAVYYCSRGWEGFAYWGQGTLVTVSA
VL: ELVMTQTPASLAVSLGQRATISCRASENVDKYGNSFMHWYQQKAGQPPKLLIYRASELQWGIPARFSGSGSRTDFTLTINPVEADDVATYFCQRSNEVPWTFGGGTKLEIK
notes: also called mAb A11; 4E5A
Kd [1]: 0.35 nM and 0.269 nM | Kd [2]: 16.8 nM and 18 nM | Kd [3]: 202 nM | Kd [4]: 0.269 nM | Kd [5]: < 0.1 nM | Kd [6]: 18 nM | Kd [7]: < 0.1 nM | Kd [8]: 14.1 nM | Kd [9]: 32.1 nM | Kd [10]: 86.2 nM | Kd [11]: 0.39 nM | Kd [12]: < 0.1 nM | Kd [13]: 7.5 nM | Kd [14]: 5080 nM | Kd [15]: 136 nM

B2: C41 (antibody, V domains shown)
VH: B1 VH with T32V
VL: B1 VL
Kd [16]: 2.56 nM

B3: antibody B48 (antibody, V domains shown)
VH: QVQLVQSGAEVKKPGASVKVSCKAGFNIKDTYMSWVRQAPEQGLEWMGRIDPENGDTKYDPKLQGRVTMTADTSTNTAYMELRSLRSDDTAVYYCARGWEGFAYWGQGTLVTVSS
VL: DIVMTQSPASLAVSLGERATISCRASENVDKYGNSFMHWYQQKPGQPPKLLIYRASELQWGVPDRFSGSGSGTDFTLTISSLQAEDVAVYYCQRSNEVPWTFGQGTKLEIK
notes: also called mAb B48
Kd [4]: 0.123 nM | Kd [6]: 8 nM | Kd [17]: 27.6 nM | Kd [16]: 19.3 nM

B4: antibody A48 (antibody, V domains shown)
VH: QVQLVQSGAEVKKPGASVKVSCKASGFNIKDTYMSWVRQAPEQGLEWMGRIDPENGDTKYDPKLQGRVTMTADTSTNTAYMELRSLRSDDTAVYYCARGWEGFAYWGQGTLVTVSS
VL: B3 VL
Kd [4]: < 0.1 nM | Kd [6]: 5.8 nM

B5: B48+InsE6 (antibody, V domains shown)
VH: B3 VH with Q1V, V2Q, Q3L, L4V, V5E
VL: B3 VL
Kd [16]: 26.9 nM

B6: A68 (A48 + A98V) (antibody, V domains shown)
VH: B4 VH with A97V
VL: B3 VL
Kd [5]: < 0.1 nM | Kd [6]: 3 nM | Kd [17]: 13.1 nM

B7: B48+V2L (antibody, V domains shown)
VH: B3 VH with V2L
VL: B3 VL
Kd [16]: 23.6 nM

B8: antibody D128 (antibody, V domains shown)
VH: B4 VH with G26A, F27W, T32V
VL: B3 VL
Kd [18]: 20.8 nM

B9: C128 (antibody, V domains shown)
VH: B4 VH with T32V, A97S
VL: B3 VL
Kd [19]: 0.63 nM | Kd [20]: 18.7 nM

B10: antibody C98 (antibody, V domains shown)
VH: B4 VH with T32V, A97V
VL: B3 VL
Kd [1]: < 0.1 nM | Kd [21]: < 0.1 nM | Kd [2]: 1.29 nM | Kd [19]: 1.21 nM

B11: D168 (antibody, V domains shown)
VH: B4 VH with F27Y, T32V
VL: B3 VL
Kd [18]: 324 nM

B12: D178 (antibody, V domains shown)
VH: B3 VH with T31V, A96V
VL: B3 VL
Kd [19]: 1.05 nM | Kd [20]: 4.67 nM

B13: A48+V2L (antibody, V domains shown)
VH: B4 VH with V2L, T32V
VL: B3 VL
Kd [16]: 21.3 nM

B14: antibody D108 (antibody, V domains shown)
VH: B4 VH with G26Y, F27W, T32V
VL: B3 VL
Kd [18]: 18.3 nM

B15: antibody D148 (antibody, V domains shown)
VH: B4 VH with G26Y, T32V
VL: B3 VL
Kd [18]: 18 nM

B16: A48+InsE6 (antibody, V domains shown)
VH: B4 VH with Q1V, V2Q, Q3L, L4V, V5E, T32V
VL: B3 VL
Kd [16]: 19.5 nM
